Test results taken from the nanobody polyreactivity screen of Harvey et al. (2022).

experiment: yeast display, Sf9 membrane polyspecificity reagent, FACS + sequencing; frameworks hold sequencing errors
How it was run: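 Using colony PCR, genes from sorted yeast display clones were amplified, then sequenced on MiSeq at 2 × 250 and filtered by CDR length. The clones had been stained with 10% biotinylated, detergent-solubilized Sf9 membrane reagent for 1 hour at 4 °C and sorted by FACS into low and high (top ~1%) gates on anti-HA and streptavidin fluorescence. Polyreactivity labels come from the gate of origin.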

Sequence	polyreactivity (PSR sort gate)
QVHLVESGGGLVQAGGSLRLSCASSASIINVYAMGWYRQAPGKEREFVADINYSGGSTYADSVKGRFTISRDNAKNTVYLQMYSVKPEDTAVYYCADVYGYLYYELYYWGQGTQVTVSS	low polyreactivity
QVHLVESGGGLVQAGGSLRLSCDASGRTFFPYGMGWYRQAPGKQRELVATISWSGGSTHYADSVKGRFTISRDNAKNTVYLQMNSLKPEDNAVYYCNKTSFLVKLDYWGQVTQVTVSS	high polyreactivity
QVHLVESGGGLVQAGGSLRLSCDASGSIFPVNAMGWYRQAPGKERELVATITWRGGRTYYADSVKGRFTISRDNAKNTVYLQMNSLKPEDTAVYYCAARLLYRHFGYWGQGTQVTVSS	high polyreactivity
QVHLVESGGGLVQAGGSLRLSCGASGIIFFHYAMGWYRQAPGKERELVAAITWSGGYTYYADSVKGRFTISRDNAKNTVYLQMNSLKPEDTAVYYCNAVLHRRLYDYWGQGTQVTVSS	high polyreactivity
QVHLVESGGGLVQAGGSLRLSCGASGSIFFIYAMGCYRQAPGKERELVATITSGGSTYYADSLKGRFTISRDNAKNTVYLQMNSLKPEDTAVYYCAVDEYFAFDYWGLGTQVTVSS	low polyreactivity
QVHLVESGGGLVQAGGSLRLSCPASGRIFAIYAAMGWTRQAPGKERELVAAISSGDNTNYADSVKGRFTISRDNAKNTVYLQLNSLKPDDTAVYYCNTNYGPTHRARYYYWGQGTQVTVSS	low polyreactivity
QVHLVESGGGLVQAGGSLRLSCPASGRIFRVYAMGWYRQEPGKERELVAAISYSGGRTFYADSVKGRFTISRDNAKNTVYFQMNSLKPEDTAVYYGAAKSYYTQALPPFDYWGQGTQVTVSS	low polyreactivity
QVHLVESGGGLVQAGGSLRLSCPASGSTFYDNAMGCYRQPPGKERELVARIRWSGVRTYYADSVKGRFTISRDNAKNTVYLQMNSLKPEDTAVYYCAAGRPSRHWWSLDYYFWGQGTQVTVSS	low polyreactivity
QVHLVESGGGLVQAGGSLRLSCSASGRTFPYNAMGWYRQSPGKERELVAAISWRGGSTYYADSVKGRFTISRDNAKNTVYLQMNSLKPEDTAVYYCNALYPVSYDHRGDYWGQGTQVTVSS	high polyreactivity
QVHLVESGGGLVQAGGSLRLSCSASGSIFGKYAMGWYRQAPGKERELVAAISWSGTSTYYADSVKGRFTISRDNAKNTVYLQMNSLKPEDTAVYYCAAESRVYGYNYWGQGTQVTVSS	high polyreactivity
QVHLVESGGGLVQAGGSLRLSCSASGSILKYYAMGWYRQAPGKERELVAAISRSGGSTYYADSVKGRFTISRDNAKNTVYLHMNSLKPEDTAVYYCAAYYNFPYHGSDYWGQGTEVTVSS	high polyreactivity
QVHLVESGGGLVQAGGSLRLSSAASGFIFLQYAMGWYRQAPGKEREFVAVISRSGGGTYYADSVKGRFTISRDNAKNTVYLQMNSLKPEDTAVYYCAALGATRSRYDYWGQGTQVTVSS	high polyreactivity
QVHLVESGGGLVQAGGSLRLSSAASGRIFKYYTMGWYRHAPGKERELVASITGTGGSTYYADSVKGRFTISRDNAKNTVYLQMNRLKPEDTAVYYCAARLSVLGGYRGRNAWRFDHWGQGTKVTVSS	high polyreactivity
QVHLVESGGGLVQAGGSLRLSSAASGSIFDGNGMGWYRQAPGKERELVASISGDGSTNYADSVKGRFTISRDNAKNTVYLQMNSLKPEDTAVYYCNARSYLTRPWWWGGPYDYWGQGTKVTVSS	low polyreactivity
QVHLVESGGGLVQAGGSLRLSSAASGSIFQVYAMGWYRQAPGTERELVAGISRGGSTYYADSVKGRFTISRDNAKNTVYLQMNSLKPEDTAVYYCAARGGGIRAYGSNRRSFYYWGQGTQVTVSS	high polyreactivity
QVHLVESGGGLVQAGGSLRLSSAASGSNFGLNAMGWSRQAPGKERELVAAITWSGGSSTYYADTVKGRLTISRDNAKNSVYLQMKSLKPEDTAVYYCAARRVFIPYYVRFYYWGQGTQVTVSS	high polyreactivity
QVHLVESGGGLVQAGGSLRLSSAASGSTFVFNAMAWYRQAPGKESELVAGISWSGGSTYYADSVKGRFTISRDNSKNTVYLQMKSLKPEDTAVYYCAVDGYFWGYYERDYSGQGTQVTVSS	low polyreactivity
QVHLVESGGGLVQAGGSLRLSSADTGYTFVNYARGWNRQAPGKERELVAAISDRGGSMYYADAVKGRFTISRDNAKNTVDLQMNSLKPEETAVYYCAAQHTGKYTGTRYFYWGQGTQVTVSS	high polyreactivity
QVHLVESGGGLVQAGGSLRLTCAASGSTFVPYAMGWYRQAPGKERELVAAISTSSGGTYYADSVKGRFTISRDNEKNTVYLQMNSLKPEDTAVYYCAAELVYVPHWLIYDYWGQGTQVTVSS	high polyreactivity
QVHLVESGGGLVQAGGTLRLRCAASGSTFERYVMGWYRHPLGKKGSWLPVLNHNGCSTYYAESVKGRFTISRDNAKNTVYLQMNSLKQEVTAVYYCAAYFRTVLDYGSWGQGTQVTVSS	low polyreactivity
QVHLVESGGGLVQAGGTLRLSCAASGLFARNAMGWYRQAPGKERELVAAINRSGGSTYYADSVKGRFTISRDNAKNTVYLQMNSLKPEDTAVYYCNKAFTHTKDRSPIAYEYGYWGQGTQVTVSS	low polyreactivity
QVHLVESGGGLVQAGRSLRLSCAASGSTFSYNAMGWSRQAPGKERELVAAISNGGSTNYADSVKGRFTISRDNAKYTVFLQMNSLKPEDTAVYYCAAHTYSELSWLVVYPYDYWGQGTQVTVSS	low polyreactivity

Sequence	polyreactivity (PSR sort gate)
QVHLVESGGGLVQARVSLRLSCAASGSTFFVYTMGWYRQAPGKETEFVATIRRGGNTYADSVKGRFTISRDNAKNSVYLQMNSLKPEDTAVYFCAVVVYQGFRSKYYYWGQGTQVTVSS	high polyreactivity
QVHLVESGGGLVQPGGTLRLTCAASGSTFGSNARGWYRLAPGKESELVAAITRRGGSTYYADSVKGRFTISRDNAKNTVDLQMNSLKPEDTAVYYCDNVYYYLYTRYDYWGQGTEVTVSS	low polyreactivity
QVHLVESGGRLVQAGGSLRLICAASGRIFFTYAMGWYRQAPGKDRELVASITGSGGSTYYADSVKGSFTISRDNAKNTVYLQMNRLKPEDTAVYYCAAALFRRQLYRKFYYWGQGTQVTVSS	low polyreactivity
QVHLVESGGRLVQAGGSLRLSCAASGFTFSYYAMGWYRQAPGKERELVASISRSVNTYYADSVKGRFTISRDNAKNTVYLQMNSLKTEDTAVYYCAAKRISYYSYNFDYWGQGTQVTVSS	high polyreactivity
QVHLVESGGWLVQAGGSLRLSCAASGLTFYNYAMGWYRPAPGKEREFVAAISRSGGTTYYADSVKGRFTISRDNAKYTVYLQMISLKPEDTAVYYCNAQWWRYWPSQVIFDYWGQGSQVTVSS	high polyreactivity
QVHLVESGRGLFQAGGSLRLSCAASGFTFTTYVMGWYRQAPGKERELVAAITSGGSTNYADSVKGRFTISRDNAKNTVFLQMNSLKPEDTAVYFCNAVKDDGKGSYPNLHVFDYDYWGQGTQVTVSS	low polyreactivity
QVHLVESGRGLVQAGGSLRLSCAASGIIFYDYSMGWYRQAPGKERELVAAISWDGVSSYYADSVKGRFTISRDNAKNTVYLQMNSLKPEATAVYYCAARAVTDDDYEFDDWGQGTQVTVSS	low polyreactivity
QVHLVESVGGLVQAGGSLRLSCAASGSIFYYNAMGWYRQAPGKERELVAAISSGGSTNYADSVKGRFTISRDNAKNTVYLQMNSLKPEDTAVYYCATGWSWYHPDYDYWGQGTQVTVSS	low polyreactivity
QVHLVETGGGLVQAGGSLRLSCAASGFTFAYYAMGWYRQAPGKEREFVAVITWSGGDKYYADSVKGRFTISRDIAKNTVYLQMNSLKPVDTSVYYCNADAYRITRYGYDYWGQGTQVTVSS	high polyreactivity
QVHLVETGGGLVQAGGSLRLSCGASGYIFSQYAMGCYRQAPGKERELVADITTSAGSTYYADSVKGRFTISRDNAKNTVYLQMNSVIPEDTAVYYCAADVYGHSYYDYDYWGQGTQVTVSS	low polyreactivity
QVHLVVSGGGLVQAGGSLRLSCAASGRLLYKYAMGWNRQAPGKERELVAAISGSGGRTYYADSVKGRFTISRDNAKNTVYLQMNSLKPEDTAVYYCAAVHPFRHVLYDYWGQGTQVTVSS	low polyreactivity
QVHPVESGGGLVQAGGSLRLSCAASGGILYRNAMGWYRQAPGKERELVAAISSRGGSTYYADSVKGRFTISRDNAKNTVYLQMNSLKPEDTAVYYCAVVNRSAQSLKYEYWGQGTQVTVSS	high polyreactivity
QVHQQESGGGLMQAGGSQRLSCAASGSISYYSDMGRYRQAPGKEREFVAGIGYGTTTNYADSVKGRFTTSRDNAKNTVYLQMISMKPEDNAVYYCAAYQGNGYEFYYWGQGTQVTVRS	low polyreactivity
QVHRGETGGGLVQAGGSLRLSCSASGLSFPHYAMGWYRQAPGKERDLVADINLSGGSNTYYADSVKGRFTISRDNAKNTVYLMMNSLKPEDTPVYDCNAVSWENWYHIMDYWGQGTQVTVSS	high polyreactivity
QVHRVESGGRLVPAGGSLRLSCAASGFTFSVNAMGWYTPPPGKEMELVAAISSGGSTSYADSVKGRFTISRDNAKNTVYLQMNSLKPEDTAVYYCAAEYHSAGSLYTYSKYYHWGQGTQVTVSS	low polyreactivity
QVHVVESGGGLVQAGGSLRLSCAASGFTFAKYAMGWYRQAPGKERELVAVITSSGGRTYYADSVKGRFTISRDNAKNTVYLQMNSLKPEDTAVYYCNAGKYVYATSQYDYWGQGTQVTVSS	high polyreactivity
QVKHVESGGGLVQAGASLRLSCAASGSIFAYNAMGCYIQAPGKERELVATISRGGNTNYADSVKGRFTISRDNAKNSVYLQMNSLKPEDTAVYYCNVLGRDIDHEYGYWGQGTQVTVSS	high polyreactivity
QVKLEESGGCLVQAGGSLRLSCAASGFTFEENAMGWYRQAPGKERELVAAINWSGGNTYYADSVKGRFTISRDNAKNTVYLQMNSLKPEDTAVYYCAADSPRYYYWVGPYYGYDYWGQGTQVTVSS	high polyreactivity
QVKLEESGGGLVQAGGSLRLSCAASGRTFTTYSMGCYRQAPGKERELVAAISGSGGSTYYADSVKGRFTISRDNAKNSVYVQMNSLKPEDTAVYYCATAYYYHGGYYYPYDDYWGQGTQVTVSS	low polyreactivity
QVKLEESGGGLVQAGGSLRLSCAASGSIFVVNAMGRYRPAPGKERELVDTITESGGSTYYADSVKGRFTISRDNAKNTVYLQMNSLKPEDTAVYYCAAYWHHKGDYWGQGTQVTVSS	low polyreactivity
QVKLEESGGGLVQAGGSLRLTCAASGRIFYLYGMGWYRQATGKERELVAAIDRRGTRTYYADSVKGRFTISCDNAQTTFYLQMNSVKPEDTAVYYCAARFAAYRTYTSYDYWGQGTQVTVSS	high polyreactivity
